Results: EP1086224B1

Assays:
[1] = target: cell-surface HLA-A1 on Hmy2.C1R-A1 transfectants with ornithine decarboxylase 309-317 (OD 309) peptide (human); experiment: competition with 2.5 µM myc-hβ2m on Hmy2.C1R-A1 cells with OD 309 peptide, 9E10 anti-myc, flow cytometry
[2] = target: cell-surface HLA-A2 on Hmy2.C1R-A2 target cells with HTLV-1 TAX 11-19 peptide (human; HTLV-1), A*02:0; experiment: cell-based or functional assay
[3] = target: cell-surface HLA-A2 on Hmy2.C1R-A2 transfectants with HIV gag 77-85 peptide (human; HIV), A*02:0
[4] = target: cell-surface HLA-A3 on Hmy2.C1R-A3 transfectants with pn2a.A3 peptide (human)
[5] = target: cell-surface HLA-A3 on Hmy2.C1R-A3 transfectants with pn2a.A3 peptide (human); remark: listed apart in the source
[6] = target: cell-surface HLA-A1 on Hmy2.C1R-A1 transfectants with ornithine decarboxylase 309-317 (OD 309) peptide (human); experiment: HLA stabilization assay, acid-stripped Hmy2.C1R-A1 cells with OD 309 peptide and BB7.5 mAb, flow cytometry

Substance	fold better inhibition of myc-hβ2m binding than wild-type hβ2m at a molar level [1]	enhancement of target cell lysis, fold more effective at a molar level than wild-type hβ2m [2]	fold better inhibition of myc-hβ2m binding than wild-type hβ2m at a molar level [3]	fold better inhibition of myc-hβ2m binding than wild-type hβ2m at a molar level [4]	fold better stabilization than wild-type hβ2m at a molar level [5]	fold better stabilization than wild-type hβ2m at a molar level [6]	hβ2m concentration giving maximal lysis by the TAX-specific CTL clone [2]
hβ2m S55V (human β2-microglobulin with valine at position 55) (from UniProt P61769 21-119)	2.5 fold	4 fold	2.5 fold	2.5 fold	3 fold	2 fold	
wild-type human β2-microglobulin (hβ2m), recombinant (from UniProt P61769 21-119)							8 µM
